Assay results: patent US20240294670A1 (University of Texas, published 2024)

Molecular target: T1, Q3UEQ9_MOUSE (mouse, UniProt Q3UEQ9 28-926)
T1 construct: also called tr|Q3UEQ9|Q3UEQ9_MOUSE
T1 sequence: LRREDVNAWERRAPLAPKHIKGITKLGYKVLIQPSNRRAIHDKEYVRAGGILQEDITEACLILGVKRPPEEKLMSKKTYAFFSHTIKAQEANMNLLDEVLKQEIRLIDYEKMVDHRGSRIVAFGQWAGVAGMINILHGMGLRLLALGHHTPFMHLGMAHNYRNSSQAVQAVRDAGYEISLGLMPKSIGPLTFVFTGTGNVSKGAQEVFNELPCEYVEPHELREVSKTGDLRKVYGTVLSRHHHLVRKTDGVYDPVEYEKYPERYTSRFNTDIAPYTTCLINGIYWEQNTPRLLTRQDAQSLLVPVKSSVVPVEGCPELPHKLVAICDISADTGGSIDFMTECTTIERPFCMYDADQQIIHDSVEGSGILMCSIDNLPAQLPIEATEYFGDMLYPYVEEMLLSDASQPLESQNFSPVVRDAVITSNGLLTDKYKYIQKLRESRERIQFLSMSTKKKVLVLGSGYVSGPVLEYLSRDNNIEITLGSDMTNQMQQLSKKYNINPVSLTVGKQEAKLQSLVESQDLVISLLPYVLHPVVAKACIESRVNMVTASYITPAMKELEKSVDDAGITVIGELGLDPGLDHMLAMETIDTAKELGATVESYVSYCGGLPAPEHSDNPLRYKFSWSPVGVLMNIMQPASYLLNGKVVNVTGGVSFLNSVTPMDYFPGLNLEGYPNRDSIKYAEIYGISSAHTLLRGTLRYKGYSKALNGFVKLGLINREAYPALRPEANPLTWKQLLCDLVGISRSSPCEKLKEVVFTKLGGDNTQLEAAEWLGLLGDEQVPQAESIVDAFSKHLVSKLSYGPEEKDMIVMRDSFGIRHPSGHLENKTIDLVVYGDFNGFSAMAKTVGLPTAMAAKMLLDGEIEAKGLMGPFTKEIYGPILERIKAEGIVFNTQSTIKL
Assay: anti-His co-IP of rCHI3L1 from Kupffer cell lysate, MS; listed under 'proteins bound to CHI3L1'
How it was run: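 Kupffer cells from WT mice 3 h after APAP were incubated with His-tagged rCHI3L1; lysate immunoprecipitated with anti-His antibody and the pulled-down fraction identified by LC/MS.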

binding result: binds
B1: recombinant mouse CHI3L1 (ligand)
chain: not shown
notes: His-tagged; also called mCHI3L1; mChi3l1
